Source: patent US8575110B2, “Peptidic nanoparticles as drug delivery and antigen display systems” (Alpha-O Peptides G, priority 2003, dated 2013)

Test: Analytical ultracentrifugation (AUC) of assembled peptidic nanoparticles
Assay type: physicochemical

Molecule | No. of monomers (Example 5 preparation 1 (dissolved directly, 2 mM DTT), 0.3 mg/ml) | No. of monomers (Example 5 preparation 1 (dissolved directly, 2 mM DTT), 0.6 mg/ml) | No. of monomers (Example 5 preparation 1 (dissolved directly, 2 mM DTT), 1.2 mg/ml) | No. of monomers (Example 5 preparation 2 (refolded from 8 M urea), 0.24 mg/ml) | No. of monomers (Example 5 preparation 2 (refolded from 8 M urea), 0.4 mg/ml) | No. of monomers (Example 5 preparation 2 (refolded from 8 M urea), 1.2 mg/ml) | No. of monomers (Example 5 preparation 2 (refolded from 8 M urea), concentration independent, one even unit) | No. of monomers (Example 4 preparation 1 (no DTT), 0.2 mg/ml) | No. of monomers (Example 4 preparation 2 (2 mM DTT), 0.2 mg/ml)
Trimer(Foldon)Cys11—Linker—COMP (protein) GSGYIPEAPRCGQAYVRKDGEWVLLSTFLGGSGLAPQMLRELQETNAALQDVRELLRQQVKQITFLKNTVMECDACG | 10.1 | 9.8 | 11.3 | 15.1 | 14.3 | 14.8 | 15 | – | –
Trimer(Foldon)Cys11—COMP (protein, Recombinant foldon, two-glycine linker, COMP peptide; residue Asp 11 replaced by a cystein residue) GSGYIPEAPRCGQAYVRKDGEWVLLSTFLGGLAPQMLRELQETNAALQDVRELLRQQVKQITFLKNTVMECDACG | – | – | – | – | – | – | – | 9.0 | 11.2
